In patent US20260184786A1 (LINDIS BIOTECH, published 2026):
Residue numbers refer to the chain shown, from its start. One block for each binder: values may come before it.

Experiments:
Human CD3E & CD3G [1] = target: T1, Human CD3E & CD3G (human, UniProt P07766;P09693); experiment: ELISA on plate-coated CD3E & CD3G heterodimer protein (Example 2); 95% CI 25,03 to 66,53 ng/ml, R squared 0.9718
T1 construct: recombinant, tag given as Lama Fc; also called CD3E & CD3G heterodimer protein; CD3E/G antigen
T1 sequence (P07766 23-126 limits assumed, chain 1 of 2): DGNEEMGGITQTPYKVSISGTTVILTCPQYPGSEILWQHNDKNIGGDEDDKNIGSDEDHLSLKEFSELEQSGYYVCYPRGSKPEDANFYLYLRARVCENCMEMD
T1 sequence (P09693 23-116 limits assumed, chain 2 of 2): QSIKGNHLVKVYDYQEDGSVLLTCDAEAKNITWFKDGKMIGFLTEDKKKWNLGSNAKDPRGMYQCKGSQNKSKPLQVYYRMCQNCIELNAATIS
Protocol: (§1) An ELISA plate was coated with CD3E & CD3G heterodimer protein (as shown in FIG. 3) at 100 ng/well at 4° C. overnight. The next day, the plate was blocked with a blocking solution (3% BSA in 1×PBS) for 2 h, washed with a washing solution and drained. The plate was then added with gradiently diluted humanized CD3 antibodies, and incubated at 37° C. for 1 h. The reaction solution was discarded, and the plate was washed and drained. The plate was then added with diluted detection antibody (THE™ His Tag Antibody [HRP]) at 100 μL per well and incubated at 37° C. for 1 h. The detection antibody was discarded, and the plate was washed and drained. The plate was then added with a single-component TMB color developing solution returned to room temperature at 100 μL per well, and the color development was performed at 37° C. for 10 min. After the color was developed, a stop solution was added to the plate at 100 μL per well to terminate the color development reaction. The absorbance was read at 450 nm using a microplate reader.

CD3 on Jurkat cells = target: T2, CD3 on Jurkat cells (human, UniProt P07766;P09693;P04234); experiment: flow cytometry on Jurkat cells, FITC-labelled secondary antibody, MFI (Example 3)
T2 construct: on the surface of Jurkat cells
T2 sequence (P07766 23-207, chain 1 of 3): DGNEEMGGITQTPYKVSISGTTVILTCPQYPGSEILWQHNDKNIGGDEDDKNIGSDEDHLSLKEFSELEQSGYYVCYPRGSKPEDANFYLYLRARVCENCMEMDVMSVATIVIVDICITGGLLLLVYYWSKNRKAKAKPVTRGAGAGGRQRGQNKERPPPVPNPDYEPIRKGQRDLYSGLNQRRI
T2 sequence (P09693 23-182, chain 2 of 3): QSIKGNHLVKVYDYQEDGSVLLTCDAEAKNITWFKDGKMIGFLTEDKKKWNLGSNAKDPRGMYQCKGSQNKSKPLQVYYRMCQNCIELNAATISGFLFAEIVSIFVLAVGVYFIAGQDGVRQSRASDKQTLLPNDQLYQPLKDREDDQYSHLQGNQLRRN
T2 sequence (P04234 22-171, chain 3 of 3): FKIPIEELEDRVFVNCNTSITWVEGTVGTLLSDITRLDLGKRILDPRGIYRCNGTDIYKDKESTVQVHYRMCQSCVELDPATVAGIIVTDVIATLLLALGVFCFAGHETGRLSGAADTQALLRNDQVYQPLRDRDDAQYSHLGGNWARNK
Protocol: The Jurkat cells were adjusted to a concentration of 4×10⁶ cells/ml with PBS, and the cell suspension (50 μl/well) and different concentrations of CD3 antibodies (50 μl/well) were sequentially added to a U-shaped 96-well plate and mixed evenly to achieve final antibody concentrations of […]. The cells were incubated in a 4° C. refrigerator for 1.5 h. After the incubation was completed, the plate was centrifuged (300 g, 5 min), then the supernatant was removed and the residue was washed with PBS (200 μl/well). Finally, FITC-conjugated AffiniPure Rat Anti-Mouse IgG (H+L) was added for staining, and flow cytometry was used for analysis and quantification.

Human CD3E & CD3G [2] = target: T1, Human CD3E & CD3G; experiment: ELISA, plate coated with CD3E & CD3G heterodimer protein (100 ng/well), anti-His tag HRP detection (Example 2)
Protocol: as §1

Human CD3E & CD3G [3] = target: T1, Human CD3E & CD3G; experiment: ELISA on plate-coated CD3E & CD3G heterodimer protein (Example 2); 95% CI 23,44 to 39,91 ng/ml, R squared 0.9911
Protocol: as §1

Human CD3E & CD3G [4] = target: T1, Human CD3E & CD3G; experiment: ELISA on plate-coated CD3E & CD3G heterodimer protein (Example 2); 95% CI 20,94 to 55,12 ng/ml, R squared 0.9704
Protocol: as §1

Human CD3E & CD3G [5] = target: T1, Human CD3E & CD3G; experiment: ELISA on plate-coated CD3E & CD3G heterodimer protein (Example 2); 95% CI 8,947 to 24,24 ng/ml, R squared 0.9587
Protocol: as §1

EC50 (Human CD3E & CD3G [1]): 0.0405 µg/mL
EC50 (read off the curve) (CD3 on Jurkat cells): ~50 ng/mL
B1: VH_V2_VL_V4 (antibody, V domains shown)
VH: EVQLVESGGGLVQPGRSLRLSCAASGFTFNNYWMSWVRQAPGKGLEWVSAITKTGGSTYYPDSVKGRFTISRDNSKSTLYLQMNSLRAEDTATYYCTREYYYDPYIDYWGQGVLVTVSS
VL: QFALTQPRSVSGSLGQSVTLSCTRTTGNIGSNYVNWYQQHEGKAPKTMIYRDDKRPSGVPDRFSGSIDRSSNTASLTISGVQAEDEADYYCQSYSSGINIFGGGTKLTVL
notes: also called HV2-LV4

binding result (Human CD3E & CD3G [2]): no binding (tested: 10 µg/ml)
B2: VH_V2_VL_V2 (antibody, V domains shown)
VH: B1 VH
VL: QFALTQPRSVSGNLGSSVKISCKRTTGNIGSNYVNWYQQHEGKAPTTMIYRDDKRPDGVPDRFSGSKDRSGNTALLTINNLQTEDEADYYCQSYSSGINIFGGGTKLTVL
notes: also called HV2-LV2

binding result (Human CD3E & CD3G [2]): no binding (tested: 10 µg/ml)
B3: VH_V4_VL_V1 (antibody, V domains shown)
VH: B1 VH with R16G, S35T, V37I, S49A, A50S, T93V, V113T
VL: QSALTQPRSVSGSPGQSVTISCTGTTGNIGSNYVSWYQQHPGKAPKLMIYRDDKRPSGVPDRFSGSKSGNTASLTISGLQAEDEADYYCQSYSSGINIFGGGTKLTVL
notes: also called HV4-LV1

EC50 (read off the curve) (CD3 on Jurkat cells): ~50 ng/mL
B4: C3002HC-LV4 (antibody, V domains shown)
VH: EVQLVESGGGLVQPGGSLRLSCAASGFTFNNYWMTWIRQAPGKGLEWVASITKTGGSTYYPDSVKGRFTISRDNAKNSLYLQMNSLRAEDTAVYYCTREYYYDPYIDYWGQGTMVTVSS
VL: B1 VL

EC50 (read off the curve) (CD3 on Jurkat cells): ~40 ng/mL
B5: C3002-2-HC-LV4 (antibody, V domains shown)
VH: B4 VH with V93T, T113V
VL: B1 VL

EC50 (Human CD3E & CD3G [3]): 0.0305 µg/mL
EC50 (read off the curve) (CD3 on Jurkat cells): ~40 ng/mL
B6: VH_V4_VL_V4 (antibody, V domains shown)
VH: B4 VH with A75S, N77S, S78T, M114L
VL: B1 VL
notes: also called HV4-LV4

binding result (Human CD3E & CD3G [2]): no binding (tested: 10 µg/ml)
B7: VH_V3_VL_V2 (antibody, V domains shown)
VH: B1 VH with S49A, A50S, S75A, A88S
VL: B2 VL
notes: also called HV3-LV2

EC50 (Human CD3E & CD3G [4]): 0.0337 µg/mL
EC50 (read off the curve) (CD3 on Jurkat cells): ~40 ng/mL
B8: VH_V3_VL_V4 (antibody, V domains shown)
VH: B1 VH with S49A, A50S, S75A, A88S
VL: B1 VL
notes: also called HV3-LV4

binding result (Human CD3E & CD3G [2]): no binding (tested: 10 µg/ml)
B9: VH_V3_VL_V1 (antibody, V domains shown)
VH: B1 VH with S49A, A50S, S75A, A88S
VL: B3 VL
notes: also called HV3-LV1

EC50 (Human CD3E & CD3G [5]): 0.0148 µg/mL
EC50 (read off the curve) (CD3 on Jurkat cells): ~40 ng/mL
B10: VH_V1_VL_V4 (antibody, V domains shown)
VH: B1 VH with R16G, P61A, S77N, T93V, V113T
VL: B1 VL
notes: also called HV1-LV4
